Test results reported in US20160362464A1 (University of California, published 2016).

What was measured:
[1] = molecular target: T1, myc-DAPLE full length F1675A (human, UniProt Q9P219 1-2028); experiment: GST pulldown from Cos7 lysates (FIG. 2D)
T1 construct: Expressed in Cos7 cells; used as cell lysate; also called myc-DAPLE FA; DAPLE-FA; not shown: N-terminal myc tag of myc-pcDNA 3.1 (+)
Description: (§1) FIGS. 2A-2N. DAPLE binds and activates Gαi3 in vitro and in vivo via its GBA motif. (A) Prediction of molecular contacts critical for the DAPLE-Gαi interaction. Homology-based model of DAPLE's GBA motif (Red) bound to Gαi3 (green=Switch II, blue=ras-like domain, yellow, all-helical domain) with an enlarged section depicting a putative hydrophobic contact between DAPLE's F1675 and Gαi3's W211/F215. (B) Mutation of residues in the SWII region of Gαi3 disrupts DAPLE binding. Binding of His-DAPLE-CT to GST-Gαi3 WT, W211A or F215A was analyzed exactly as described in FIG. 1D. (C) Mutation of DAPLE F1675 to A abrogates Gαi3 binding. Binding of His-DAPLE-CT WT or F1675A (FA) to GST-Gαi3 was analyzed exactly as described in FIG. 1D. […] Myc-DAPLE WT or F1675A (FA) was expressed in Cos7 and binding to GST-Gαi3 analyzed exactly as described in FIG. 1E. […] Immune complexes were analyzed for DAPLE (myc) and Gαi3 (FLAG) by immunoblotting (IB). was monitored as positive Gαi3-binding control. […] The steady-state GTPase activity of His-Gαi3 alone (black) or in the presence of 2 μM His-DAPLE-CT (blue) was determined by measuring the production of [³²P]Pi at different time points as described in “Methods”. […] GTPγ³⁵S binding to His-Gαi3 at 15 min was determined in the presence of increasing concentrations (0-2 μM) of His-DAPLE-CT WT (blue) or His-DAPLE-CT FA (red).

[2] = molecular target: T2, His-DAPLE-CT (aa 1650-2028) F1675A (human, UniProt Q9P219 1650-2028); experiment: GST pulldown, purified proteins (FIG. 2C)
T2 construct: Recombinant, purified from E. coli; also called His-DAPLE-CT FA; DAPLE-CT FA; not shown: His tag and vector residues of pET28b
T2 sequence: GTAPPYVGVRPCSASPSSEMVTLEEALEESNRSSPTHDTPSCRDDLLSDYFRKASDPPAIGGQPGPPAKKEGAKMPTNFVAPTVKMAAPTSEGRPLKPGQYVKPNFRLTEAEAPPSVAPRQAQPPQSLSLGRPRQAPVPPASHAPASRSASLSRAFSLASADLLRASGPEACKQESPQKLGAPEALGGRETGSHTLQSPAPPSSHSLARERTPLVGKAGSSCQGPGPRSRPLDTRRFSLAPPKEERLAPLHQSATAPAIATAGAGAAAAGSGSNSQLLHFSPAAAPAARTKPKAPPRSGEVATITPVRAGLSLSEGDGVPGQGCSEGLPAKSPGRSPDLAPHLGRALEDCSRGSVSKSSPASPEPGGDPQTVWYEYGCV
Description: as §1

B1: GST-Gαi3 preloaded with GDP (inactive) (other, rat, UniProt P08753 1-354, looked up)
chain: MGCTLSAEDKAAVERSKMIDRNLREDGEKAAKEVKLLLLGAGESGKSTIVKQMKIIHEDGYSEDECKQYKVVVYSNTIQSIIAIIRAMGRLKIDFGEAARADDARQLFVLAGSAEEGVMTSELAGVIKRLWRDGGVQACFSRSREYQLNDSASYYLNDLDRISQTNYIPTQQDVLRTRVKTTGIVETHFTFKELYFKMFDVGGQRSERKKWIHCFEGVTAIIFCVALSDYDLVLAEDEEMNRMHESMKLFDSICNNKWFTDTSIILFLNKKDLFEEKIKRSPLTICYPEYTGSNTYEEAAAYIQCQFEDLNRRKDTKEVYTHFTCATDTKNVQFVFDAVTDVIIKNNLKECGLY
notes: Immobilized on glutathione beads; Same polypeptide as m11, other nucleotide state; also called GST-Gαi3 WT; not shown: glutathione S-transferase tag of the pGEX-4T-1 vector
binding result [1]: no binding
binding result [2]: no binding
